Measurements as given in the supplement of paper PMC10567573.

B1: FBXO3 (parent)
chain: FIDTYSDVGRYIDHYAAIKKAWDD

Variants of: B1
Assay: protein stability index of a GFP-peptide fusion (GPS, HEK-293T) (PSI 1-6); higher = more stable
Settings: c terminus: a fixed tail appended
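Further: lentivirally expressed fusions sorted by FACS into six bins by GFP to DsRed ratio, PSI derived from sequencing read proportions per bin multiplied by bin number.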

Protein stability index: each site, then its substitutions
R10: P 1.78 | T 1.83 | Y 1.75 | V 2.86 | A 1.6 | N 1.88 | H 1.56 | C 1.9 | Q 2.58 | M 1.75 | G 1.92 | W 1.46 | K 1.82 | F 2.23 | E 2.56 | S 2.1 | I 1.48 | D 2.32 | L 1.85
D3: V 2.63 | C 1.57 | S 2.06 | K 1.91 | Y 2.46 | Q 1.82 | W 1.92 | P 2.01 | N 1.74 | T 1.62 | G 3.01 | I 2.33 | M 2.56 | R 1.91 | F 1.38 | L 2.3 | E 2.14 | H 1.81
Y15: A 1.93 | P 1.57 | G 1.87 | N 1.97 | M 1.55 | V 1.99 | S 1.48 | R 2.61 | K 1.93 | C 2.24 | I 2.15 | H 2.32 | F 2.14 | L 1.53 | Q 2.96 | W 2.08 | E 1.94 | D 2.08 | T 1.82
T4: K 1.83 | Q 1.59 | A 2.41 | L 1.89 | M 1.89 | G 3.57 | H 1.88 | I 1.94 | R 2.12 | F 2.28 | W 1.37 | V 1.91 | Y 1.82 | E 2.67 | D 2.04 | N 2.02 | C 1.55 | S 1.89 | P 1.86
V8: E 2.32 | I 2.62 | S 1.72 | D 3.07 | Q 1.79 | T 1.65 | F 1.79 | A 1.79 | H 1.82 | G 2.07 | P 2.72 | W 1.62 | C 1.9 | L 1.92 | Y 1.81 | R 1.59 | M 2.03 | N 2.2 | K 2.02
K19: N 1.88 | F 1.84 | S 1.02 | Y 1.64 | Q 2.07 | H 2.68 | D 2.46 | P 1.74 | I 2.39 | T 2.38 | M 3.18 | V 1.98 | R 1.16 | C 1.55 | G 1.91 | W 2.34 | A 1.37 | E 1.34 | L 1.92
Y11: H 1.78 | M 1.85 | A 1.82 | F 1.89 | P 2.24 | R 2.37 | W 2.39 | L 1.42 | N 2.25 | S 2.2 | E 1.38 | K 2.06 | G 1.66 | I 2 | Q 2.06 | D 1.78 | V 1.93 | C 1.66 | T 1.59
H14: V 2.27 | I 1.71 | D 2.7 | Y 1.82 | G 2.11 | P 2.38 | T 1.71 | S 2.49 | A 2.01 | K 1.87 | R 2.38 | C 2.31 | E 1.84 | N 1.58 | F 2.19 | M 1.75 | Q 1.63 | W 1.87 | L 1.66
K20: N 2.76 | M 2.49 | P 2.15 | H 1.7 | F 2.08 | L 1.54 | A 2.16 | D 1.74 | C 2.19 | G 1.81 | Q 1.68 | I 2.59 | E 2.29
I18: R 1.7 | M 2.16 | T 2.24 | P 1.96 | C 1.94 | K 2.41 | F 2.12 | L 2.11 | N 1.46 | S 2.13 | Y 1.31 | Q 1.54 | G 2.38 | W 1.74 | H 2.39 | D 1.7 | A 2.03 | V 2.16 | E 1.97
I12: T 1.93 | R 2.27 | K 1.76 | S 1.32 | D 1.82 | G 2.19 | Q 2.3 | H 1.91 | C 2.21 | W 1.41 | Y 1.98 | E 1.99 | P 2.05 | F 2.09 | L 1.97 | M 1.72 | N 1.78 | V 2 | A 2.21
S6: Y 1.54 | P 2.03 | H 2.06 | A 1.97 | F 1.6 | G 1.94 | V 2.35 | I 2.14 | K 1.65 | W 3.09 | N 1.83 | D 1.69 | Q 1.89 | R 3.1 | C 2.12 | T 1.65 | M 1.77 | L 2.17 | E 1.62
A17: T 1.68 | C 1.92 | P 2.17 | L 1.83 | D 2.23 | H 2.59 | M 1.24 | S 2.38 | G 1.84 | Q 1.62 | R 1.98 | V 2.18 | F 3.36 | N 1.63 | I 1.6 | Y 2.6 | W 2 | E 1.72 | K 1.92
Y5: V 2.47 | R 2.45 | I 2.05 | M 2.1 | E 2.8 | F 2.19 | C 2.84 | G 2.21 | A 2.25 | W 2.27 | S 2.5 | K 2.44 | N 2.21 | H 2.13 | T 2.23 | P 3.12 | L 1.96 | Q 2.2 | D 2.9
D13: K 2.1 | N 2.34 | C 1.77 | Q 2.7 | R 1.3 | L 2.24 | I 2.88 | G 2.6 | E 1.32 | Y 2.58 | H 2.06 | S 1.84 | T 1.5 | A 1.98 | M 2.07 | P 1.83 | V 2.2 | W 2.51
D7: V 2.43 | H 1.63 | A 1.21 | T 1.68 | W 2.67 | R 2.14 | P 2.16 | S 2.32 | N 1.77 | E 1.48 | M 2.64 | Y 2.01 | G 2.33 | L 1.93 | F 2.79 | C 1.86 | K 2.19 | Q 1.53 | I 1.75
A16: E 1.89 | K 2.04 | R 1.69 | Y 2.71 | W 1.84 | Q 1.81 | F 1.69 | C 2.08 | V 2.6 | H 2.12 | P 2.07 | G 2.44 | I 1.71 | D 1.6 | S 1.93 | N 1.12 | L 2.01 | M 1.25 | T 1.42
G9: T 1.83 | L 2.22 | E 2.15 | C 1.65 | V 1.77 | A 1.62 | H 1.9 | R 1.7 | K 1.85 | P 1.85 | M 3.14 | Q 2.03 | F 1.9 | Y 2 | N 2.05 | D 1.57 | S 1.91 | W 1.83 | I 1.75
